B2: wild type human MIC-1 (ligand)
chain: ARNGDHCPLGPGRCCRLHTVRASLEDLGWADWVLSPREVQVTMCIGACPSQFRAANMHAQIKTSLHRLKPDTVPAPCCVPASYNPMVLIQKTDTGVSLQTYDDLLAKDCHCI
notes: also called wtMIC-1; hMIC-1

Tests used:
hPSPN = target: T1, hPSPN (human, UniProt O60542 61-156, limits assumed); experiment: SPR; ligand as analyte over immobilised mGFRAL(ECR)-Fab-HPC4
T1 sequence (looked up): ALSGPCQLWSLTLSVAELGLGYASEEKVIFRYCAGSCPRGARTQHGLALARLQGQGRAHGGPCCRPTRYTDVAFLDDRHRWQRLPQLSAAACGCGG
From the text: (§1) For SPR-based binding assay, wtMIC-1 as well as hGDNF, hNRTN, hARTN and hPSPN, at various concentrations were run as flow-through analytes. hGFRAL(ECR)-Fab and mGFRAL(ECR)-Fab were immobilized as ligand. […] FCRL2-Fab-HPC4 (Ctrl.-Fab-HPC4) was used as control. Please see FIG. 5 and Table 4.

hARTN = target: T2, hARTN (human, UniProt Q5T4W7 108-220); experiment: as above
T2 sequence (looked up): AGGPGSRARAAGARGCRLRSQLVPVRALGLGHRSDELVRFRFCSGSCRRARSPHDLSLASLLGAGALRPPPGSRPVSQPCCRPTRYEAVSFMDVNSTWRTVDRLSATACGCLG
From the text: as §1

wild type human MIC-1 = target: B2; experiment: as above
From the text: as §1

hNRTN = target: T3, hNRTN (human, UniProt Q99748 96-197); experiment: as above
T3 sequence (looked up): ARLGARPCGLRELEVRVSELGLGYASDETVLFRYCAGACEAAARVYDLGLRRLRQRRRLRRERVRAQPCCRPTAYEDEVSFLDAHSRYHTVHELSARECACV
From the text: as §1

hGDNF = target: T4, hGDNF (human, UniProt P39905 78-211); experiment: as above
T4 sequence (looked up): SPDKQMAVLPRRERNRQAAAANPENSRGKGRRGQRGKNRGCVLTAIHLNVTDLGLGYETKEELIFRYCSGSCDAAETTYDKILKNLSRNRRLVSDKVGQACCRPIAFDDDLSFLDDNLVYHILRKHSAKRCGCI
From the text: as §1

VISTA-Fc [1] = target: T5, VISTA-Fc; experiment: SPR; analyte 37 nM over immobilised VISTA-Fc (Ctrl-Fc)
T5 construct: Negative control ligand immobilised on the chip; also called Ctrl-Fc
Description: (§2) hRet and complex of hGFRAL and MIC-1 interactions were assessed by SPR-based binding assay. A Biacore® 4000 (GE Healthcare, Piscataway, N.J., USA) instrument was used. The assays were performed at 25° C. at flow rates of 30 μL/minute in 1× HBS-P running buffer (BR-1006-71, GE Healthcare, Piscataway, N.J., USA). hRet(ECR)-Fc was immobilized through Fc as ligand on the chip. VISTA-Fc was immobilized as negative control ligand. The complex of MIC-1 and hGFRAL was prepared by pre-incubating wtMIC-1 with hGFRAL(ECR)-His. wtMIC-1, hGFRAL(ECR)-His, complex of wtMIC-1 and Ctrl-His, and complex of wtMIC-1 and hGFRAL(ECR)-His at various concentration were run as flow-through analyte.
(§3) Thus, it can be concluded that that hRet binds to hGFRAL in the presence of MIC-1; and Ret, MIC-1 and GFRAL forms a ternary complex.

VISTA-Fc [2] = target: T5, VISTA-Fc; experiment: SPR; analyte 111 nM over immobilised VISTA-Fc (Ctrl-Fc)
Description: as §2, §3

hRET(ECR)-hIgG1.1_Fc [3] = target: T6, hRET(ECR)-hIgG1.1_Fc (human); experiment: SPR; analyte 37 nM over immobilised hRet(ECR)-Fc
T6 construct: also called hRET(ECR)-Fc; hRet(ECR)-Fc
T6 sequence (chain, as listed by the source limits assumed): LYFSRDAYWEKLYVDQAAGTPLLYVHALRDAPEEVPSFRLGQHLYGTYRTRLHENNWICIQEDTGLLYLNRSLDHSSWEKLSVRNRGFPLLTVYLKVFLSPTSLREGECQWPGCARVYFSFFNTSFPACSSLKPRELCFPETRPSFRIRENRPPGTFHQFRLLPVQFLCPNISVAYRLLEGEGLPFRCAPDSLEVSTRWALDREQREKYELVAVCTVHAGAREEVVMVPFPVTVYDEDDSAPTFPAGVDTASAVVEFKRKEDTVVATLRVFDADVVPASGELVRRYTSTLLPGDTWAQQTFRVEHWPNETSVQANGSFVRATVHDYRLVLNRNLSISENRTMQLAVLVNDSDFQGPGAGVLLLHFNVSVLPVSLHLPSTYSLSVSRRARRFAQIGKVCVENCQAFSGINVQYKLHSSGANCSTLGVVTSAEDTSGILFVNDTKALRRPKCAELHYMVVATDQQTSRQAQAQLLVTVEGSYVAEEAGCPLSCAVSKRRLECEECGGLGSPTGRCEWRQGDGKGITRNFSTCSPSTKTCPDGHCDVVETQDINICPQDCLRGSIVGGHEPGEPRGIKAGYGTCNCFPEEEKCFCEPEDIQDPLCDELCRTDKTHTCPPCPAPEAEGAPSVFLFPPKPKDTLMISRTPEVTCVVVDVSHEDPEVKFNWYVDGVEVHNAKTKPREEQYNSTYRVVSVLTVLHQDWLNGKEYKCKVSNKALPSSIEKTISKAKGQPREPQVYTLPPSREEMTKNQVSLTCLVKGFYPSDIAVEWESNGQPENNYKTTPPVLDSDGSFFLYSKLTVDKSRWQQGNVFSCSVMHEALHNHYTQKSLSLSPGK
Description: as §2, §3

hRET(ECR)-hIgG1.1_Fc [4] = target: T6, hRET(ECR)-hIgG1.1_Fc; experiment: SPR; analyte 111 nM over immobilised hRet(ECR)-Fc
Description: as §2, §3

hRET(ECR)-hIgG1.1_Fc [5] = target: T6, hRET(ECR)-hIgG1.1_Fc; experiment: SPR; analyte 12 nM over immobilised hRet(ECR)-Fc
Description: as §2, §3

[6] = target: T7, full length hGFRAL and full length hRET51 co-expressed on cells (human, UniProt Q6UXV0 19-394; P07949 29-1114); experiment: cell-based or functional assay
T7 sequence (P07949 29-1114, one chain of several): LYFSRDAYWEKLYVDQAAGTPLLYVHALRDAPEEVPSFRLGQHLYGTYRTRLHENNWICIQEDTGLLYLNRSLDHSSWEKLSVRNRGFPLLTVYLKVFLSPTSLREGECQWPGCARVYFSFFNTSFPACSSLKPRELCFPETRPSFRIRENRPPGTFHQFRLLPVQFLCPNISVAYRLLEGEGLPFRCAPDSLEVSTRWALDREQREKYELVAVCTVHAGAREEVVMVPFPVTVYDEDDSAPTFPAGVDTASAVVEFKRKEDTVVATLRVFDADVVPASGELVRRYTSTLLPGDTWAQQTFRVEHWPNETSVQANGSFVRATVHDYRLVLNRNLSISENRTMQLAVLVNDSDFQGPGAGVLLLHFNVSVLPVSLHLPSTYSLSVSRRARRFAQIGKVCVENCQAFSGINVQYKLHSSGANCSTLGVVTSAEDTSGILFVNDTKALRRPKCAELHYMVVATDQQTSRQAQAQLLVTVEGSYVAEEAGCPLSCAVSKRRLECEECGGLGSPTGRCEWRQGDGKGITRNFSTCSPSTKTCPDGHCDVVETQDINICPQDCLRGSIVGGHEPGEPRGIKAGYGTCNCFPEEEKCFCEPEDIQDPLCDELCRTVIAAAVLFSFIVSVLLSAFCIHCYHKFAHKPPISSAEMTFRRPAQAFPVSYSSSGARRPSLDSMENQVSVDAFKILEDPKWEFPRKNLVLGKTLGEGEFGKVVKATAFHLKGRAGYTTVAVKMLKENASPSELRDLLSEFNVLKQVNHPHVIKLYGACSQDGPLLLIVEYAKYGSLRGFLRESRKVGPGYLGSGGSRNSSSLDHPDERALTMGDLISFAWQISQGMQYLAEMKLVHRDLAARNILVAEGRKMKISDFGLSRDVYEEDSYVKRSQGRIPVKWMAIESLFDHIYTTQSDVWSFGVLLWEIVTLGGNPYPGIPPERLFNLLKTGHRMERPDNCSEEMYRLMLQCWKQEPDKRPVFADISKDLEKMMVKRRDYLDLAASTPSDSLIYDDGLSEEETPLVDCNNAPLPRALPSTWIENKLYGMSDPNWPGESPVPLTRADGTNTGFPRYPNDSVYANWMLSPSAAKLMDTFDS

VISTA-Fc [7] = target: T5, VISTA-Fc; experiment: SPR; analyte 12 nM over immobilised VISTA-Fc (Ctrl-Fc)
Description: as §2

hRET(ECR)-hIgG1.1_Fc [8] = target: T6, hRET(ECR)-hIgG1.1_Fc; experiment: SPR; analyte 333 nM over immobilised hRet(ECR)-Fc
Description: as §2, §3

[9] = target: T7, full length hGFRAL and full length …; experiment: binding to BHK21-hGFRAL-IRES-hRET stable cells, median fluorescence intensity
VISTA-Fc [10] = target: T5, VISTA-Fc; experiment: SPR; analyte 0 nM over immobilised VISTA-Fc (Ctrl-Fc)
Description: as §2, §3

VISTA-Fc [11] = target: T5, VISTA-Fc; experiment: SPR; analyte 333 nM over immobilised VISTA-Fc (Ctrl-Fc)
Description: as §2, §3

hRET(ECR)-hIgG1.1_Fc [12] = target: T6, hRET(ECR)-hIgG1.1_Fc; experiment: SPR; analyte 1000 nM over immobilised hRet(ECR)-Fc
Description: as §2, §3

VISTA-Fc [13] = target: T5, VISTA-Fc; experiment: SPR; analyte 1000 nM over immobilised VISTA-Fc (Ctrl-Fc)
Description: as §2, §3

[14] = target: full length hGFRAL and full length hRET43 co-expressed on HEK293 cells (human, UniProt Q6UXV0 19-394; P07949 29-1062); experiment: cell-based or functional assay
Chain of full length hGFRAL and full length hRET43 co-expressed on HEK293 cells (P07949 other isoform, or with tags, fused parts or gaps limits assumed): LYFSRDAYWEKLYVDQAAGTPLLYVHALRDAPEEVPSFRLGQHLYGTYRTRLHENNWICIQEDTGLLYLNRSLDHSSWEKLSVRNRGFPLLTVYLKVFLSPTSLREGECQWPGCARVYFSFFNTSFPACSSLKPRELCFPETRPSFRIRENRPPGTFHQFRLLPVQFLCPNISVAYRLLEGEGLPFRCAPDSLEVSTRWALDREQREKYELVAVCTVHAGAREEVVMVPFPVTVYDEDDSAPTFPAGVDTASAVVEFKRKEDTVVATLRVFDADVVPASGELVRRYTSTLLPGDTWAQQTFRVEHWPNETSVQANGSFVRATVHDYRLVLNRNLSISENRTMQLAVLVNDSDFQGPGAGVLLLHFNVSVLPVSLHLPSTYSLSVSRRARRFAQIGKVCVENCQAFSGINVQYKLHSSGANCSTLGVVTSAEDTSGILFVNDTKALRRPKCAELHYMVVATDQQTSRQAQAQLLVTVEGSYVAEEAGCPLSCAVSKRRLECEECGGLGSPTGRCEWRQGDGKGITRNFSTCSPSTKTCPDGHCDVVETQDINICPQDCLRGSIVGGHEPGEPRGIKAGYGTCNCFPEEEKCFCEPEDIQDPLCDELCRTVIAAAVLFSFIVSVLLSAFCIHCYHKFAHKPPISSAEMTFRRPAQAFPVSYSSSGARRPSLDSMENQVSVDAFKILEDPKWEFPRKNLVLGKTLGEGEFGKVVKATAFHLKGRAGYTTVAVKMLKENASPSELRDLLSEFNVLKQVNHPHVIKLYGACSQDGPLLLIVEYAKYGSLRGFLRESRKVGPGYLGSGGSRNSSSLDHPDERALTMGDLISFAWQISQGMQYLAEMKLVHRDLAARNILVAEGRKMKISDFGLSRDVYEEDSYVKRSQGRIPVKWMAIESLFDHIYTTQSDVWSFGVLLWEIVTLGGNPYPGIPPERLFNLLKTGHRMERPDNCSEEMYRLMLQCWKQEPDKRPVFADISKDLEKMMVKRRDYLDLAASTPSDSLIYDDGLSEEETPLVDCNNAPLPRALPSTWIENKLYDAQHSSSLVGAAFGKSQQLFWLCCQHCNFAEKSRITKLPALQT

[15] = target: T7, full length hGFRAL and full length …; experiment: cell-based or functional assay; remark: listed apart in the source
[16] = target: full length hGFRAL and full length hRET9 co-expressed on HEK293 cells (human, UniProt Q6UXV0 19-394; P07949 29-1063); experiment: cell-based or functional assay
Chain of full length hGFRAL and full length hRET9 co-expressed on HEK293 cells (P07949 other isoform, or with tags, fused parts or gaps limits assumed): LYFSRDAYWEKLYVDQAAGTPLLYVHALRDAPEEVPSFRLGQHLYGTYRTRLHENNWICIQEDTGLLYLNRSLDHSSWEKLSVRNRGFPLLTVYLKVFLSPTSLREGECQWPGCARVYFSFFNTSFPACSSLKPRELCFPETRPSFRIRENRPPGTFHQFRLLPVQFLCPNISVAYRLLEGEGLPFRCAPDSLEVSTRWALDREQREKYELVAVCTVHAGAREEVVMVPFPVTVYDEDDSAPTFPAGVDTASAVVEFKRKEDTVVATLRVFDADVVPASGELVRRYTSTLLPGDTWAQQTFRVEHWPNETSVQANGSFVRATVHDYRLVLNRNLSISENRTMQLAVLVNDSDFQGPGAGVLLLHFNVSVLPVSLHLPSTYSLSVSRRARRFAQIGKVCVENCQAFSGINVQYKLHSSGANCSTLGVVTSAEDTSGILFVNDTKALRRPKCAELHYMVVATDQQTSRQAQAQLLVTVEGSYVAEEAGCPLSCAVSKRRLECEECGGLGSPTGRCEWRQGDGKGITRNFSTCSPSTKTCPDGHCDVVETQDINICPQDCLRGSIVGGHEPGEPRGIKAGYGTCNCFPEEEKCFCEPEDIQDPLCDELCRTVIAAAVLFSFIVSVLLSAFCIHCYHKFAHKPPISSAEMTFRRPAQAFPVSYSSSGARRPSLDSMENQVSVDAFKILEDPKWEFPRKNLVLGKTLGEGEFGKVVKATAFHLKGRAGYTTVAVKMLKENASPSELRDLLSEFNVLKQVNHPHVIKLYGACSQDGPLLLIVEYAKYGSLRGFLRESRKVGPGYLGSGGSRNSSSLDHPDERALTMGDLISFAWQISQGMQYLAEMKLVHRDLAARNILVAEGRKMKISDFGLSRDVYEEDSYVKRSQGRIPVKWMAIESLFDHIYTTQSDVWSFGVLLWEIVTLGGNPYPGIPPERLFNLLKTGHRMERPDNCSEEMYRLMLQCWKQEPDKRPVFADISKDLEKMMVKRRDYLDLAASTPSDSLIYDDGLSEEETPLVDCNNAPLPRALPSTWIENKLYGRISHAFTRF

hRET(ECR)-hIgG1.1_Fc [17] = target: T6, hRET(ECR)-hIgG1.1_Fc; experiment: SPR; analyte 0 nM over immobilised hRet(ECR)-Fc
Description: as §2, §3

B1: mGFRAL(ECR)-Fab-HPC4 (receptor)
chain: QTNDCAHLIQKCLIDANGCEQSWRSMEDTCLTPGDSCKINNSLHCNLSIQALVEKNFQFKECLCMDDLHCTVNKLFGKKCTNKTDNMEKDNKDKWNLTTTPFYHGFKQMQSCLEVTEACVGDVVCNAQLALYLKACSANGNLCDVKHCQAAIRFFYQNMPFNTAQMLAFCDCAQSDIPCQQSKETLHSKPCALNIVPPPTCLSVIHTCRNDELCRTHYRTFQTECWPHITGKCHEDETCISMLGKQDLTCSGSESCRAAFLGTFGTVLQVPCACRGVTQAEEHVCMIFQHMLHSKSCFNYPTPNVKDISSYEKKNSKEITLTGFNSFFNGGGGSGGGGSDVVMTQTPLSLPVSLGDQASISCRSSQSLLHSNGNTYLHWYLQKPGQSPKLLIYKVSNRFSGVPDRFSGSGSGTDFTLKISRVEAEDLGVYFCSQSTHVPWTFGGGTKLEIKRADAAPTVSIFPPSSEQLTSGGASVVCFLNNFYPKDINVKWKIDGSERQNGVLNSWTDQDSKDSTYSMSSTLTLTKDEYERHNSYTCEATHKTSTSPIVKSFNRNEC
heavy: EVQIQESGPSLVKPSQTLSLTCSVSGDSITSGYWNWIRKFPGHKIEYMGTISYSGDTYYNPSLKSRISITRDTSKNQYYLHLNSVTTEDTATYYCARYGSYVFDYWGQGTTLTVSSAKTTPPSVYPLAPGSAAQTNSMVTLGCLVKGYFPEPVTVTWNSGSLSSGVHTFPAVLQSDLYTLSSSVTVPSSTWPSETVTCNVAHPASSTKVDKKIVPRDCGGGGSEDQVDPRLIDGK
notes: Soluble fusion of the mouse GFRAL (isoform 1) extracellular region with an anti-TNP Fab; also called mGFRA(ECR)L-Fab-HPC4
B1: no binding (hPSPN); no binding (hARTN); binds (wild type human MIC-1). B1: no binding (hNRTN); no binding (hGDNF).

With B2 the “Response (RU)” value (VISTA-Fc [1]) was -0.0179 RU, the “Response (RU)” value (VISTA-Fc [2]) was 0.362 RU and the “Response (RU)” value (hRET(ECR)-hIgG1.1_Fc [3]) was 0.467 RU. For the same binder, the “Response (RU)” value (hRET(ECR)-hIgG1.1_Fc [4]) was 0.484 RU, the “Response (RU)” value (hRET(ECR)-hIgG1.1_Fc [5]) was 0.184 RU and the “EC50 of ERK1/2 phosphorylation; hGFRAL and hRET51 co-transfected PC12 cells” value [6] was about 200 pM. For the same binder, the “Response (RU)” value (VISTA-Fc [7]) was -0.245 RU, the “Response (RU)” value (hRET(ECR)-hIgG1.1_Fc [8]) was 0.88 RU and the EC50 [9] was 1300 pM. For the same binder, the “Response (RU)” value (VISTA-Fc [10]) was 0 RU, the “Response (RU)” value (VISTA-Fc [11]) was 0.226 RU and the “Response (RU)” value (hRET(ECR)-hIgG1.1_Fc [12]) was 0.527 RU. For the same binder, the “Response (RU)” value (VISTA-Fc [13]) was -0.515 RU, the “pERK1/2 (Evision Unit); HEK293 cells; wtMIC-1 0.001000 nM” value [14] was 1 Evision Unit and the “pERK1/2 (Evision Unit); HEK293 cells; wtMIC-1 0.030483 nM” value [14] was 1.03 Evision Unit. The “pERK1/2 (Evision Unit); HEK293 cells; wtMIC-1 0.091449 nM” value [14] was 1.01 Evision Unit, the “pERK1/2 (Evision Unit); HEK293 cells; wtMIC-1 0.274348 nM” value [14] was 1.05 Evision Unit and the “pERK1/2 (Evision Unit); HEK293 cells; wtMIC-1 0.823045 nM” value [14] was 1.09 Evision Unit. The “pERK1/2 (Evision Unit); HEK293 cells; wtMIC-1 2.469136 nM” value [14] was 1.07 Evision Unit, the “pERK1/2 (Evision Unit); HEK293 cells; wtMIC-1 7.407407 nM” value [14] was 1.14 Evision Unit and the “pERK1/2 (Evision Unit); HEK293 cells; wtMIC-1 22.222220 nM” value [14] was 1.11 Evision Unit. For the same binder, the “pERK1/2 (Evision Unit); HEK293 cells; wtMIC-1 66.666670 nM” value [14] was 1.16 Evision Unit, the “pERK1/2 (Evision Unit); HEK293 cells; wtMIC-1 0.001000 nM” value [15] was 1 Evision Unit and the “pERK1/2 (Evision Unit); HEK293 cells; wtMIC-1 0.030483 nM” value [15] was 1.02 Evision Unit. The “pERK1/2 (Evision Unit); HEK293 cells; wtMIC-1 0.091449 nM” value [15] was 0.969 Evision Unit, the “pERK1/2 (Evision Unit); HEK293 cells; wtMIC-1 0.274348 nM” value [15] was 1.13 Evision Unit and the “pERK1/2 (Evision Unit); HEK293 cells; wtMIC-1 0.823045 nM” value [15] was 1.4 Evision Unit. For the same binder, the “pERK1/2 (Evision Unit); HEK293 cells; wtMIC-1 2.469136 nM” value [15] was 1.69 Evision Unit, the “pERK1/2 (Evision Unit); HEK293 cells; wtMIC-1 7.407407 nM” value [15] was 1.7 Evision Unit and the “pERK1/2 (Evision Unit); HEK293 cells; wtMIC-1 22.222220 nM” value [15] was 1.73 Evision Unit. For the same binder, the “pERK1/2 (Evision Unit); HEK293 cells; wtMIC-1 66.666670 nM” value [15] was 1.74 Evision Unit, the “pERK1/2 (Evision Unit); HEK293 cells; wtMIC-1 0.001000 nM” value [16] was 1 Evision Unit and the “pERK1/2 (Evision Unit); HEK293 cells; wtMIC-1 0.030483 nM” value [16] was 1.07 Evision Unit. The “pERK1/2 (Evision Unit); HEK293 cells; wtMIC-1 0.091449 nM” value [16] was 0.988 Evision Unit, the “pERK1/2 (Evision Unit); HEK293 cells; wtMIC-1 0.274348 nM” value [16] was 1.07 Evision Unit and the “pERK1/2 (Evision Unit); HEK293 cells; wtMIC-1 0.823045 nM” value [16] was 1.17 Evision Unit. For the same binder, the “pERK1/2 (Evision Unit); HEK293 cells; wtMIC-1 2.469136 nM” value [16] was 1.24 Evision Unit, the “pERK1/2 (Evision Unit); HEK293 cells; wtMIC-1 7.407407 nM” value [16] was 1.3 Evision Unit and the “pERK1/2 (Evision Unit); HEK293 cells; wtMIC-1 22.222220 nM” value [16] was 1.26 Evision Unit. The “pERK1/2 (Evision Unit); HEK293 cells; wtMIC-1 66.666670 nM” value [16] was 1.32 Evision Unit and the “Response (RU)” value (hRET(ECR)-hIgG1.1_Fc [17]) was 0 RU.
